From IntAct's records for PubMed 23602662

B1: OX-2 membrane glycoprotein (Mus musculus), O54901 (parent)
chain: MGSLVFRRPFCHLSTYSLIWGMAAVALSTAQVEVVTQDERKALHTTASLRCSLKTSQEPLIVTWQKKKAVSPENMVTYSKTHGVVIQPAYKDRINVTELGLWNSSITFWNTTLEDEGCYMCLFNTFGSQKVSGTACLTLYVQPIVHLHYNYFEDHLNITCSATARPAPAISWKGTGTGIENSTESHFHSNGTTSVTSILRVKDPKTQVGKEVICQVLYLGNVIDYKQSLDKGFWFSVPLLLSIVSLVILLVLISILLYWKRHRNQERGESSQGMQRMK
partner: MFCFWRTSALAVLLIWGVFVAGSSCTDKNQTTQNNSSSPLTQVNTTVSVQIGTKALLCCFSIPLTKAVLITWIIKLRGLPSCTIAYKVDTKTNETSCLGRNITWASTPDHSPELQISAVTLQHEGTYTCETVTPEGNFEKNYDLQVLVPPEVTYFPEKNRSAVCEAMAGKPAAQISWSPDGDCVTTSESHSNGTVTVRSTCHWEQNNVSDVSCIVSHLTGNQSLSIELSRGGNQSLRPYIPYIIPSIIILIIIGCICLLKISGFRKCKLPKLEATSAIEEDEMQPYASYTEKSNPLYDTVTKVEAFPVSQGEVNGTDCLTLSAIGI
B2: Cell surface glycoprotein CD200 receptor 4 (Mus musculus), Q6XJV4 (parent)
chain: MHALGRIPTLTLLIFINIFVSGSSCTDENQTIQNDSSSSLTQVNTTMSVQMDKKALLCCFSSPLINAVLITWIIKHRHLPSCTIAYNLDKKTNETSCLGRNITWASTPDHSPELQISAVALQHEGTYTCEIVTPEGNLEKVYDLQVLVPPEVTYFPGKNRTAVCEAMAGKPAAQISWTPDGDCVTKSESHSNGTVTVRSTCHWEQNNVSVVSCLVSHSTGNQSLSIELSQGTMTTPRSLLTILYVKMALLVIILLNVGFAFFQKRNFART
partner: B1 chain

Variants of: B1
Conditions: with mo2r1_mouse Cd200r1, Q9ES57

| effect of a mutation on the interaction | Variant |
| --- | --- |
| disrupting interaction strength | L122A |
| disrupting interaction strength | L60K |
| disrupting interaction strength | N124K |
| disrupting interaction strength | N74A |
| disrupting interaction strength | N74D |
| disrupting interaction strength | K130E |
| disrupting interaction strength | F126D |
| disrupting interaction strength | F126A |
| disrupting interaction strength | I61E |

Variants of: B2
Conditions: with ox2g_mouse Cd200, O54901

| effect of a mutation on the interaction | Variant |
| --- | --- |
| increasing interaction strength | N87K;K90T |
| increasing interaction strength | N87K;K90T;L138F |
| increasing interaction strength | L138F |
